Measurements as given in patent publication EP4628104A1 (Shanghai Chia Tai Tianqing Pharmaceutical Technology …, dated 2024).

B1: hz28G3-1.1-DDDXd (with DAR of 7.4) (antibody, human IgG1, kappa, DAR 7.4, V domains shown)
VH: QVQLVQSGAEVKKPGASVKVSCKTSGYSFTDYLMLWVRQAPGQGLEWMGNINPYYGRTTYALKFKGRVTMTVDRSTSTVYMELSSLRSEDTAVYYCARDGYSLRNAMDYWGQGTLVTVSS
VL: DIVMTQSPDSLAVSLGERATINCKSSQSLFNSGNQKNYLAWYQQKPGQPPKLLIYGASTRESGVPDRFSGSGSGTDFTLTISSLQAEDVAVYYCQNAHSYPYTFGQGTKVEIKR
modifications: linker-payload MC-GGFG-DDDXd (compound H) conjugated to cysteines of the reduced inter-chain disulfide bonds; positions not given; linker-payload MC-GGFG-DDDXd (compound H) conjugated to cysteines of the reduced inter-chain disulfide bonds; positions not given; DAR 7.4 for the whole molecule
notes: also called anti-CLDN18.2 antibody-drug conjugate
B2: humanized antibody hz28G3-1.1 (antibody, human IgG1, kappa, V domains shown)
VH: QVQLVQSGAEVKKPGASVKVSCKTSGYSFTDYLMLWVRQAPGQGLEWMGNINPYYGRTTYALKFKGRVTMTVDRSTSTVYMELSSLRSEDTAVYYCARDGYSLRNAMDYWGQGTLVTVSS
VL: DIVMTQSPDSLAVSLGERATINCKSSQSLFNSGNQKNYLAWYQQKPGQPPKLLIYGASTRESGVPDRFSGSGSGTDFTLTISSLQAEDVAVYYCQNAHSYPYTFGQGTKVEIKR
notes: Naked humanized anti-CLDN18.2 antibody, human IgG1 / kappa, expressed in CHO cells
B3: humanized antibody hz28G3-1.3 (antibody, human IgG1, kappa, V domains shown)
VH: QVQLVQSGAEVKKPGASVKVSCKTSGYSFTDYLMLWVRQAHGQSLEWMGNINPYYGRTTYALKFKGRVTMTVDRSTSTVYMELSSLRSEDTAVYYCARDGYSLRNAMDYWGQGTLVTVSS
VL: DIVMTQSPDSLAVSLGERATINCKSSQSLFNSGNQKNYLAWYQQKPGQPPKLLIYGASTRESGVPDRFSGSGSGTDFTLTISSLQAEDVAVYYCQNAHSYPYTFGQGTKVEIKR
notes: as for B2
B4: hz28G3-1.3-DDDXd (with DAR of 7.6) (antibody, human IgG1, kappa, DAR 7.6, V domains shown)
VH: QVQLVQSGAEVKKPGASVKVSCKTSGYSFTDYLMLWVRQAHGQSLEWMGNINPYYGRTTYALKFKGRVTMTVDRSTSTVYMELSSLRSEDTAVYYCARDGYSLRNAMDYWGQGTLVTVSS
VL: DIVMTQSPDSLAVSLGERATINCKSSQSLFNSGNQKNYLAWYQQKPGQPPKLLIYGASTRESGVPDRFSGSGSGTDFTLTISSLQAEDVAVYYCQNAHSYPYTFGQGTKVEIKR
modifications: linker-payload MC-GGFG-DDDXd (compound H) conjugated to cysteines of the reduced inter-chain disulfide bonds; positions not given; linker-payload MC-GGFG-DDDXd (compound H) conjugated to cysteines of the reduced inter-chain disulfide bonds; positions not given; DAR 7.6 for the whole molecule
notes: as for B1

What was measured:
[1] = target: T1, human CLDN18.2 (human); assay: flow cytometry, CLDN18.2-overexpressing BxPC-3 cells
T1 construct: The construct in the CLDN18.2-overexpressing BxPC-3 and NCI-N87 lines is not described; KATOIII and NUGC-4 express CLDN18.2 naturally; All are written here as this one molecule; also called Claudin 18.2; tight junction protein 18.2
T1 sequence (chain, as listed by the source limits assumed): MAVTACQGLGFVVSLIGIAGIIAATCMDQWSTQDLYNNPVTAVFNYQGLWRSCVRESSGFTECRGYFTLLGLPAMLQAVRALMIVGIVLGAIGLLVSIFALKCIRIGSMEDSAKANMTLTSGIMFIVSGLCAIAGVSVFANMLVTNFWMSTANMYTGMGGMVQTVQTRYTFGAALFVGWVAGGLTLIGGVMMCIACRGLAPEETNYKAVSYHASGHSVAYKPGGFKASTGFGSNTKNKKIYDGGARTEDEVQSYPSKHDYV

[2] = target: T1, human CLDN18.2; assay: flow cytometry, CLDN18.2-overexpressing NIH-3T3 cells
[3] = target: T1, human CLDN18.2; assay: cell-based or functional assay
[4] = target: T1, human CLDN18.2; assay: cell-based or functional assay; remark: listed apart in the source
[5] = target: T1, human CLDN18.2; assay: cell-based or functional assay; remark: listed apart in the source
[6] = target: T1, human CLDN18.2; assay: flow cytometry, CLDN18.2-overexpressing NCI-N87 cells

Binder | EC50 [1] | EC50 [2] | Killing activity IC50 (CellTiter-Glo), CLDN18.2-overexpressing BxPC-3 cells [3] | Killing activity IC50 (CellTiter-Glo), CLDN18.2-overexpressing NCI-N87 cells [3] | Killing activity IC50 (CellTiter-Glo), CLDN18.2-overexpressing NIH-3T3 cells [3] | CDC activity IC50, CLDN18.2-overexpressing NIH-3T3 cells with human complement [4] | Endocytosis EC50, CLDN18.2-overexpressing NCI-N87 cells [5] | Endocytosis EC50, CLDN18.2-overexpressing NIH-3T3 cells [5] | EC50 [6]
B1 | 1.13 nM | 0.896 nM | 0.125 nM | 0.0381 nM | 0.44 nM | ~0.352 nM | 4.41 nM | 3.69 nM | 1.17 nM
B2 | 2.63 nM | 2.27 nM | – | – | – | – | 7.84 nM | 2.57 nM | 2.61 nM
B3 | 3.42 nM | 1.76 nM | – | – | – | – | 6.68 nM | 4.26 nM | 2.73 nM
B4 | 0.946 nM | 0.593 nM | 0.0886 nM | 0.0337 nM | 0.281 nM | ~0.352 nM | 3.24 nM | 1.85 nM | 1.02 nM
